Measured values: article PMC4024747 (Nature Communications, 2014)

Key:
[1] = target: rPfSUB1cat, recombinant Plasmodium falciparum SUB1 core catalytic domain (38 kDa) (Plasmodium falciparum, UniProt Q8I0V0); assay: western blot; conditions: both partners purified
[2] = target: T1, recombinant P. vivax SUB1 (Plasmodium vivax, PVX_097935 (Salvador …, UniProt E6Y8B9)); assay: western blot; conditions: both partners purified
T1 construct: also called PvSUB1
T1 sequence (E6Y8B9 26-630): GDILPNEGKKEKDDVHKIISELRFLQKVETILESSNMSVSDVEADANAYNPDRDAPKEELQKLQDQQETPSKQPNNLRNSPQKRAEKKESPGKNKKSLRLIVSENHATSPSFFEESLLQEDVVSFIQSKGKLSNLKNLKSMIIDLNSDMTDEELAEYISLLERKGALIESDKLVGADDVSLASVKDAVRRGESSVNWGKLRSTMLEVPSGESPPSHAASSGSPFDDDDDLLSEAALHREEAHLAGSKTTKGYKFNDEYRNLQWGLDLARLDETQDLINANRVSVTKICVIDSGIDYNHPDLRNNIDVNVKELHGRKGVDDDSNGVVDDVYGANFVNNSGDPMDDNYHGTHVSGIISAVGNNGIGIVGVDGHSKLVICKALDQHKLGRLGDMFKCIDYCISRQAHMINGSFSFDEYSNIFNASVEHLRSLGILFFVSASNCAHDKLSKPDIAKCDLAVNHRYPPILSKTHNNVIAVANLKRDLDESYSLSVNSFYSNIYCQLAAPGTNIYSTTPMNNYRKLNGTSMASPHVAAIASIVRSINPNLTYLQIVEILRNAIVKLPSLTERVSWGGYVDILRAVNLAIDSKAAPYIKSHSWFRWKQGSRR

rPfSUB1cat, recombinant Plasmodium falciparum SUB1 core catalytic domain (38 kDa), sequence (Q8I0V0 333-668): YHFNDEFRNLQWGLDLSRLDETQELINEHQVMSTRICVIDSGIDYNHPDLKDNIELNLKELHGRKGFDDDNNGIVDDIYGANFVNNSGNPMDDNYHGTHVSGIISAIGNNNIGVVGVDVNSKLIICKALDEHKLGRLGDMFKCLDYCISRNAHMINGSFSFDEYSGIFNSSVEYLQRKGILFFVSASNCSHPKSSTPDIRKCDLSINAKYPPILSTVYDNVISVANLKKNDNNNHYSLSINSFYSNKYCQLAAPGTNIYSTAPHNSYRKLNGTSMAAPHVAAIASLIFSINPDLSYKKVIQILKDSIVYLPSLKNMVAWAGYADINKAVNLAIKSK

B1: mAb NIMP.M7, PfSUB1-specific monoclonal antibody (whole antibody) (antibody, V domains shown)
VH: QVQLQESGPDLVKPSSSLKLTCTTTGYSISSGYSWHWIRQEPGKSLEWMGYIHYSGSTDYNDSLKARITITRDTASNMFFLQLSSVTSDDTAVYYCVIYRYDGQWVFDDWGAGTTVTVSS
VL: DIVLTQSPATMSASLGQRVSMSCSASSSVSTSYFHWYQQKPGSSPKLWIYSTSNLASGVPGRFSGSGSGTSYSLSISSMEAEDAATYYCHQFHRSPLTFGAGTKLELK
binding result [1]: binds | binding result [2]: binds
